Test results taken from patent publication US20240417462A1 (SHANGHAI CELGEN BIO PHARMACEUTICAL, published 2024).

T1: mouse TIGIT antigen (mouse, UniProt P86176 29-148, limits assumed)
T1 construct: construct not described; also called murine TIGIT
T1 sequence (looked up): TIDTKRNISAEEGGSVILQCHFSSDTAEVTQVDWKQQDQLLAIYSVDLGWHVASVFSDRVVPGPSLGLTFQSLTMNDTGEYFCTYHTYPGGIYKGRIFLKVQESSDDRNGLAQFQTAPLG

T2: recombinant human TIGIT (Human TIGIT His, Sino Biological, 10917-H08H) (human, UniProt Q495A1 22-138)
T2 construct: range 1-138; bought; also called hTIGIT
T2 sequence (looked up): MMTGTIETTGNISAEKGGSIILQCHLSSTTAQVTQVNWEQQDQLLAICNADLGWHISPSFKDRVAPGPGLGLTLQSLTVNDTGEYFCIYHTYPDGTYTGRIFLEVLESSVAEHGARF

T3: full-length human TIGIT expressed on CHO-K cell membrane (CHO-K-TIGIT) (human, UniProt Q495A1 22-244)
T3 construct: whole, on cells; also called CHO-TIGIT; membrane TIGIT
T3 sequence (looked up): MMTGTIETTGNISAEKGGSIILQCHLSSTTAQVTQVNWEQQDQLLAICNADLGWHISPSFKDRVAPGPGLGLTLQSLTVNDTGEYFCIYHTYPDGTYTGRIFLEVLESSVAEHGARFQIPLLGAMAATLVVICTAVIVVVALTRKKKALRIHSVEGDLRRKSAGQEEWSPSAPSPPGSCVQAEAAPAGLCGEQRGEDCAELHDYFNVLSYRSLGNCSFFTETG


Legend:
mouse TIGIT antigen = target: T1, mouse TIGIT antigen; assay: ELISA, coated mouse TIGIT
Experimental: (§1) The cynomolgus monkey or mouse TIGIT antigen of was coated with the same method as above, the anti-human TIGIT mouse monoclonal antibody was diluted in gradient, and then the anti-mouse Fab secondary antibody was added (Jackson Immuno Research, 515-035-072) for TMB development. ELISA was used to detect the binding of 8 mouse monoclonal antibodies to recombinant cynomolgus monkey TIGIT.

[1] = target: T2, recombinant human TIGIT (Human TIGIT …); assay: ELISA, coated human TIGIT-His
[2] = target: T4, recombinant cynomolgus monkey TIGIT (cynomolgus monkey, UniProt A0A7N9I9V4 89-209); assay: ELISA, coated cynomolgus TIGIT
T4 construct: construct not described; also called cynomolgus TIGIT
Experimental: as §1

[3] = target: T3, full-length human TIGIT expressed on …; assay: flow cytometry, CHO-TIGIT cells
[4] = target: T2, recombinant human TIGIT (Human TIGIT …); assay: competition ELISA, coated TIGIT-His, CD155-Fc as competitor
[5] = target: T4, recombinant cynomolgus monkey TIGIT; assay: ELISA, recombinant cynomolgus TIGIT coated, anti-mouse Fab secondary antibody, TMB, OD450/655nm
Experimental: as §1

T4 sequence (A0A7N9I9V4 entry or part of it): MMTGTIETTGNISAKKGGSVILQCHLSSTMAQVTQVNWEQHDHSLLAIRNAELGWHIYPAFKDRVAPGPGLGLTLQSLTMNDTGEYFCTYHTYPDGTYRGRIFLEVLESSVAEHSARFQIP

Binder	binding result (mouse TIGIT antigen)	EC50 [1]	EC50 [2]	EC50 [3]	IC50 [4]	EC50 [5]
anti-human TIGIT mouse monoclonal antibody 7103-06 (antibody, V domains shown, often printed as 7105-06; also called 7105-06; 47A2-1-2) VH: EEQLVESGGGLVKPGGTLKLSCAASGFTFSTYAMSWVRQSPEKRLEWVAEISSGGSYTYYSDTVTGRFTISRDNAKNTLYLEMSSLRSEDTAMYYCARKTLDYYALDYWGHGTSVTVSS VL: DVQITQSPSYLAASPGETITINCRANKTISKYLAWYQEKPGKTNKLLIYSGSRLQSGIPSKFSGSGYGTDFTLTISSLEPEDFAMYYCQQHNEYPWTFGGGTKLEIK	no binding	0.0393 nM	0.174 nM	0.256 nM	0.0607 nM	0.026 µg/mL
anti-human TIGIT mouse monoclonal antibody 7103-07 (antibody, V domains shown, also called 42C12-1-2) VH: EVQVVESGGGLVKPGGTLKLSCAASGFTFSTYAMSWVRQSPEQRLEWVAEISSGGSHTFYSDTVTGRFTISRDNAQNTLYLEMNSLRSEDTAMYYCARKTLDYYALDYWGQGTSVTVSS VL: DVQITQSPSYLAASPGETITINCRASKSISKYLAWYQEKPGKTNKLLIYSGSRLQSGIPSKFSGSGYGTDFTLTISSLEPEDFAMYYCQQHNEYPWTFGGGTKVEIK	no binding	0.075 nM	0.704 nM	0.226 nM	0.159 nM	0.106 µg/mL
anti-human TIGIT mouse monoclonal antibody 7103-03 (antibody, V domains shown, also called 36H8-2-2) VH: EVQLQQSGPELVKPGASVKISCKTSGYTFTEYTMHWVKQSHGKSLEWIGGINPNNGGTSYNQKFKGKATLTVDKSSSTAYMELRSLTSEDSAVYYCARGAYYRYDFDYWGQGTTLTVSS VL: DIVMTQSHKFMSTSVGDRVSITCKASQDVRTAVVWYQQKPGQSPKLLIYSASYRYTGVPDRFTGSGSGTDFTFTISSVQAEDLAVYYCQQHYSTPWTFGGGTKLEIK	no binding	0.0674 nM	0.398 nM	0.347 nM	0.141 nM	0.06 µg/mL
anti-human TIGIT mouse monoclonal antibody 7103-04 (antibody, V domains shown, also called 40E6-2-2) VH: VQLQESGAELVKPGASVKLSCRASGYTFTDYFVYWVKQRPGQGLEWIGGINPSNGGATFNEKFKNKATLTVDTSSSTAYMQLSSLTSEDSAIYYCTRGNFYGYEFAYWGQGTLVTVSA VL: DIVMTQSHKFISTSVGDRVSITCKASQHVSTAVVWYQQKPGQSPKLLIYSPSYRYTGVPDRFTGSGSGTDFTFTISSVQAEDLAVYYCQQHYITPWTFGGGTKLEIK	no binding	0.0727 nM	0.334 nM	0.44 nM	0.183 nM	0.05 µg/mL
